Reference: patent publication US12428627B2, “Mutant p-hydroxyphenylpyruvate dioxygenase, and coding nucleic acid and use thereof” (Qingdao Kingagroot Chemical Compound Co., Ltd., priority 2018, dated 2025)

Columns and labels:
rice HPPD (OsHPPD) = assay: Color reaction of recombinant E. coli expressing wild-type or mutant rice HPPD, cultured in 96-well plate in medium containing an HPPD-inhibiting herbicide and tyrosine; type: cell-based, Oryza sativa; conditions: tembotrione and metabolic product of benzuofucaotong, FIG. 1
From the text: The rice full-length OsHPPD enzyme has 446 amino acids and its amino acid sequence is set forth in SEQ ID NO: 2, wherein the amino acids 1-50 are considered to constitute a signal peptide which is responsible for directing into chloroplast (Siehl et al. Plant Physiol. 2014 November; 166(3): 1162-1176). Therefore, from the amino acid at the 51-position to the amino acid at the […], a saturated random mutation was made for each amino acid. This was achieved by performing a bridge PCR by using a primer containing a coding sequence of an amino acid to be mutated into NNK and another suitable conventional primer. In NNK, N represented A/T/G/C and K represented G/T, and the NNK codon could encode any one of 20 amino acids or terminators. Accordingly, this was a saturated mutation. Please see: Kille S. Acevedo-Rocha C G, Parra L P, Zhang Z G, Opperman D J, Reetz M T, Acevedo J P (2013) Reducing codon redundancy and screening effort of combinatorial protein libraries created by saturation mutagenesis. ACS Synth Biol 2(2):83-92; Directed Evolution Library Creation: methods and protocols 2nd ed. Edited by Elizabeth M. J. Gillam, Janine N. Copp and David F. Ackerley New York, NY United States: Springer, 2014. doi:10.1007/978-1-4939-1053-3. A large number of mutants would be produced. The mutant was cloned into a linearized pET-44a vector and transformed into E. co/i, which was cultivated by using a 96-well plate in a 2×YT culture solution containing an HPPD-inhibiting herbicide (such as 1-2 μM tembotrione) and a substrate tyrosine (1 g/L) in a shaker at 28° C. and 150 rpm for 24 hours for expression, and then the mutants were rapidly screened out according to their color browning. By using the method, 10 single amino acid mutants, A103S, H141R, H141 K, H141T, A165V, V191I, R220K, G342D, D370N and K410I, were screened out. The color reaction of these resistant mutants in the presence of tembotrione and the metabolic product of benzuofucaotong relative to that of the wild type was as shown in FIG. 1.
Similarly, the color reaction of these mutants in the presence of the other three HPPD-inhibiting herbicides huanbifucaotong, topramezone and mesotrione were determined, see FIGS. 2 and 3. The resistance/tolerance of each of the mutants to the five herbicides was roughly estimated on the basis of color changes thereof and the results were shown in Table 1. The more the plus sign “+”, the deeper the color and the higher the resistance/tolerance as compared to the wild type.
HPPD-inhibiting herbicides inhibited HPPD enzymatic activity. When tyrosine was converted to 4-hydroxyphenylpyruvate (HPP) under the action of tyrosine transaminase, the inactivated HPPD was unable to oxidize 4-hydroxyphenylpyruvate into homogentisic acid (HGA). HGA was dark brown. Therefore, if an HPPD mutant was resistant to or tolerant to an herbicide, after expressed in E. coli, the mutant could also oxidize 4-hydroxyphenylpyruvate into homogentisic acid, whereby dark brown appeared. Therefore, E. coli was cultured in a 2×YT culture medium containing a HPPD-inhibiting herbicide and a substrate tyrosine using a 96-well plate to express HPPD, and these mutants were rapidly screened according to their color changes. • (1) Preparation of 2×YT culture medium (1 g/L L-Tyr, 0.1 mM IPTG, 0.01 mM MnCl2 and 100 mg/L ampicillin were added). • (2) 0.1 mL of the above medium was added to each well of a 96-well plate, and the expression clones of OsHPPD wild type or mutant (OsHPPD Mut) from the E. coli plate obtained by the above transformation were subjected to liquid culture in the 96-well plate. HPPD inhibitors having a final concentration of 1 μM-20 μM were added according to different selected agents, for example, the final concentration of tembotrione was 1.7 μM while mesotrione was 10 μM. […]

[1] = system: Huaidao No. 5 rice seedlings; assay: Gene-edited rice seedlings (base editing / homologous replacement of HPPD gene) on medium containing tembotrione; type: in vivo; conditions: medium containing 0.4 μM tembotrione
Procedure: The calli of Huaidao No. 5 (at least 3000 callis) were infected according to the aforesaid method for infecting rice callis with Agrobacterium. After being infected with Agrobacterium, the infected calli were transferred to a 50 mg/L hyg screening medium for screening culture. After three rounds (15 days×3) of screening, the blond calli with good growth state were picked out to differentiate in a differentiation medium, and 0.2 μM tembotrione was added during the differentiation process for screening. After for 3-4 weeks, about 1,500 seedlings with around 1 cm were obtained. As to the about 1,500 differentiated seedlings, the vast majority of which had been bleached, and only 4 seedlings remained normal green. The 4 seedlings were transplanted to a rooting medium containing 0.4 μM tembotrione and cultivated for 2 weeks, wherein two seedlings had been bleached, while the other two seedlings remained green (FIG. 14A). A small number of leaves were used to extract genomic DNA by CTAB method. PCR was carried out by using the primers oshppd54F: TTCCACCACGTCGAGCTC and Oshppd356R: […]. The amplified product was detected by 1% agarose electrophoresis and sequenced by Sanger sequencing method. […]

B1: H141R: single-site mutant rice HPPD (protein, listed as Oryza sativa)
chain: MPPTPTPTATTGAVSAAAAAGENAGFRLVGHRRFVRANPRSDRFQALAFHHVELWCADAASAAGRFAFALGAPLAARSDLSTGNSAHASLLLRSASVAFLFTAPYGGDHGVGADAATTASIPSFSPGAARRFAADHGLAVRAVALRVADAADAFRASVAAGARPAFQPADLGGGFGLAEVELYGDVVLRFVSHPDGADAPFLPGFEGVSNPGAVDYGLRRFDHVVGNVPELAPVAAYISGFTGFHEFAEFTAEDVGTAESGLNSVVLANNAETVLLPLNEPVHGTKRRSQIQTYLDHHGGPGVQHIALASDDVLGTLREMRARSAMGGFEFLAPPPPNYYDGVRRRAGDVLSEEQINECQELGVLVDRDDQGVLLQIFTKPVGDRPTFFLEMIQRIGCMEKDESGQEYQKGGCGGFGKGNFSELFKSIEEYEKSLEAKQAPTVQGS
modifications: The amino acid sequence of Wild-Type rice HPPD protein (OsHPPD _WT)
For B1, the “color change compared with wild type” value (rice HPPD (OsHPPD)) was “obviously deeper than that of the wild type” and the “state of successfully edited seedlings” value [1] was “remain green”.
